As a reminder, the stoichiometry N is a count of units in the complex or per binding partner.

This note sets out measurements from publication PMC6858856.

Read-outs that look alike come from different tables or passages of the source.

Assay [1] concerns the target FANCB-FAAP100 heterodimer (Gallus gallus) (Gallus gallus). As to the kind of experiment: cryo-EM structure.
The target is the same in assay [2]. As to the kind of experiment: cryo-EM structure. The source holds these as a separate data set.

Take “FANCB-FAAP100 heterodimer (Gallus gallus) (complex)”: the stoichiometry N in assay [1] and in assay [2] was 2 throughout.
